Biological target: BRD4-BD1 (recombinant, NMR and fluorescence anisotropy) (UniProt O60885)
Assay: fluorescence polarisation

## Twist-K73ac/K76ac peptide (residues 68-79) (from UniProt Q15672 68-79)
  Ki: > 3 mM

Source: PMC4004960
